“Also recorded” adds a separate entry of the source.
Assays:
patients = assay: Peripheral blood counts of patients on VKA versus control patients; assay type: in vivo, human
From the text: For FIGS. 6C-6H: Data of patients on VKA were obtained from the French health care databases. Patients with hematological disease, inflammation or sepsis were excluded. Patients admitted to the hospital for dermatological problems without hematological disease or sepsis acted as controls.

Lin− cells [1] = assay: Plating of warfarin-exposed Lin− cells on untreated versus warfarin-treated stroma, with or without MK-2206; assay type: cell-based, mice; details: MK-2206 5 μM added to cocultures, P=0.02
wildtype mice = assay: Complete blood count and flow cytometry of peripheral blood and bone marrow of treated mice; assay type: in vivo; details: administration of vitamin K1, P=0.04
Description: (§1) 0.5 mg/kg/d or 0.05 mg/kg/d of warfarin, resuspended in phosphate-buffered saline was administered to mice via subcutaneously implanted osmotic minipumps (ALZET minipumps, Cupertino, CA). The osmotic minipumps were changed after 14 days (if the experiment went beyond 14 days of treatment). Sham operated (skin incision and suture) mice served as controls. Warfarin treatment continued for 10-14 days. In the xenotransplantation experiments the mice were treated with warfarin via the drinking water (or normal drinking water) at a dose of 0.72 mg/100 ml for a total of 3 days a week (Pfeilschifter et al., 2011).
(§2) 5-fluorouracil was intraperitoneally injected every week at a dose of 75 mg/kg for a total of 4 doses or as a one time dose of 200 mg/kg. Recombinant mouse periostin (R&D Systems, Minneapolis, MN, cat. no. 2955-F2), produced in the Sf21 (baculovirus)-derived insect cell line, was administered intravenously at a dose of 2-4 μg per day and vitamin K was given at a dose of 15 mg/kg by oral gavage for four consecutive days.
We assessed the complete blood count of vehicle or warfarin-treated mice using a complete blood count analyzer (Scil Vet ABC, Gurnee, IL). Peripheral blood and bone marrow samples were stained with antibodies for flow cytometry, which was performed on a BD LSR Fortessa (BD Biosciences, Heidelberg, Germany). The lineage antibody cocktail contained antibodies to B220, CD5, Ter119, F4/80 and CD11b. Engraftment of human cells in NSG mice was assessed using anti-human CD45 (BD Biosciences, San José, CA).

HSC = assay: Competitive transplantation of bone marrow from periostin- or vitamin K-treated donor mice; assay type: in vivo; details: for percentage of LKS cells, cell cycle of transplanted LKS cells, number of colonies in methylcellulose: previously treated bone marrow cells compared to vehicle
Description: as §2
SJL (CD45.1) donor mice were treated with vehicle or warfarin, euthanized and long bones were flushed, followed by RBC lysis (Life Technologies, Darmstadt, Germany). For competitive transplantation 2×10^6 total BM cells from SJL mice were co-transplanted with 1×10^6 CD45.2+ BM competitor cells into lethally irradiated (900 cGy) C57BL/6N (CD45.2+) recipient mice. For serial transplantation 2×10^6 total CD45.1+ BM cells were transplanted into lethally irradiated C57BL/6N recipient mice. Cell engraftment and chimerism were assessed by flow cytometry of peripheral blood leukocytes for CD45.1 and CD45.2 after 4, 8, 12 and 16 weeks post transplantation. In the limiting dilution experiment we treated primary CD45.1+ donor mice with vehicle or warfarin for 14 days and, consequently, transplanted 5×10^5, 12.5×10^4, 6×10^4 and 1.5×10^4 pooled BM cells into 5 CD45.2+ recipients per group adding 5×10^5 CD45.2+ supporter cells. In indicated experiments we transplanted 5,000 or 10,000 sorted CD45.1+ LKS cells from mice treated with vehicle or warfarin plus 1×10^6 CD45.2+ total BM supporter cells into CD45.2+ recipient mice.

integrin β3 = molecular target: T1, integrin β3 (Mus musculus, UniProt O54890+P43406); assay: Inhibition of integrin β3 by cilengitide, pAKT in Lin− cells cocultured on BM stroma; assay type: cell-based, mice; details: cilengitide 0.05 μM, coculture on BM stroma cells, P=0.03
T1 construct: endogenous in cells; host or cells: murine Lin− bone marrow cells cocultured on murine BM stroma cells
T1 sequence (O54890 26-787): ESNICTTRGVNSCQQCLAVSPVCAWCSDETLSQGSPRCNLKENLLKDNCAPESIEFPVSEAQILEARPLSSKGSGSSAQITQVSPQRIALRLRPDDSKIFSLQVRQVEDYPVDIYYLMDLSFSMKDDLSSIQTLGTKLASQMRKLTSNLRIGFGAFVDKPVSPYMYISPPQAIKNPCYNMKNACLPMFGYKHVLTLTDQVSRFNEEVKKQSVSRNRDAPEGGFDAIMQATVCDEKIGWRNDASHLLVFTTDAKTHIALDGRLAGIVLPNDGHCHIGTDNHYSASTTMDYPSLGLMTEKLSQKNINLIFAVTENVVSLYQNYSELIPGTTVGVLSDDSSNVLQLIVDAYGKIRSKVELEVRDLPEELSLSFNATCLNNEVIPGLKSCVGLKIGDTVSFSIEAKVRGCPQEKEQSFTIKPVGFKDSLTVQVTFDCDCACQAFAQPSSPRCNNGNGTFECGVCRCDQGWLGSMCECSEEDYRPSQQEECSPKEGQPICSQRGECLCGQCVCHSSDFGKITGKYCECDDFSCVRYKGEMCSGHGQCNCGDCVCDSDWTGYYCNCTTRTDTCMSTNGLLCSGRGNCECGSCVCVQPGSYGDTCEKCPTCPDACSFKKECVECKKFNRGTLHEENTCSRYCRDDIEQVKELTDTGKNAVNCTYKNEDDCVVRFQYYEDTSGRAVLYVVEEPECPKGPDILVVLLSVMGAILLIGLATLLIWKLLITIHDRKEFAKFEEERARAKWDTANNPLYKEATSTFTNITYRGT
T1 sequence (P43406 31-885 limits assumed): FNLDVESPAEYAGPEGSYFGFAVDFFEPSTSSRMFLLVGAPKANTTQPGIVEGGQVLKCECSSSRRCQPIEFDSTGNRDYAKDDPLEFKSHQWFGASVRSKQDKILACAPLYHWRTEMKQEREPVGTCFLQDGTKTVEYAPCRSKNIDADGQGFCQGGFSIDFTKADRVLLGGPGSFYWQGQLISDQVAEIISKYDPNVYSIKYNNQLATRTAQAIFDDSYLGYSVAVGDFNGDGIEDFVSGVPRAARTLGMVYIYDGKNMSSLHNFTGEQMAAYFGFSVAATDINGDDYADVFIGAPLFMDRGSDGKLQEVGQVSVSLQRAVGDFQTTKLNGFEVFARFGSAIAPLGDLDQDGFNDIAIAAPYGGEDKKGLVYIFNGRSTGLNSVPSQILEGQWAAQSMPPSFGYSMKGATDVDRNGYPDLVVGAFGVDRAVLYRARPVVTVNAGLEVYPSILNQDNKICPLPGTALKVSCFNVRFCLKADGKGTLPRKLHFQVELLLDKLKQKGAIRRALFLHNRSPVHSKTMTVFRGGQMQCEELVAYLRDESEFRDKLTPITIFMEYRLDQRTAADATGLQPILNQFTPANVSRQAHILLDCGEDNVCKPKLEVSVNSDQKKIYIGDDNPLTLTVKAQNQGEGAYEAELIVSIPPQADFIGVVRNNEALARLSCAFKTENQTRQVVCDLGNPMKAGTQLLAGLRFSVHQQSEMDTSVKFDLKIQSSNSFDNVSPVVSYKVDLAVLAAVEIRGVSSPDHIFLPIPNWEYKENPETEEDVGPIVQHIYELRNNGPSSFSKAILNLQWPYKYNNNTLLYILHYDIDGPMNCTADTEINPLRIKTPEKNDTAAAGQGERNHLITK
T1 sequence (P43406 887-1044 partner limits assumed): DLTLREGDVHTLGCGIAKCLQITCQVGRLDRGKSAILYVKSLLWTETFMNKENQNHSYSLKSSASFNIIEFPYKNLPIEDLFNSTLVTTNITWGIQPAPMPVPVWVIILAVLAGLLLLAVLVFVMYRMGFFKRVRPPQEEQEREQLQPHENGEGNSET
Description: (§3) Concentrations of drugs for in vitro use were 2 μM for warfarin, 2 μg/ml for periostin, 5 μM for the AKT inhibitor MK-2206 (Selleck Chemicals, Houston, TX) and cilengitide (Selleck Chemicals, Houston, TX, Cat. No. #S7077) was used at 0.05 μM. Phosphate buffered saline served as the vehicle control.
The PE-labelled anti-pAKT antibody (Cell signaling, #5315, Danvers, MA) was used for intracellular flow cytometry after fixation and permeabilization of the cells.

[2] = test system: hematopoietic cells from murine bone marrow; assay: In vitro rescue experiment with periostin in stroma/Lin− cocultures; assay type: cell-based; details: for absolute number of hematopoietic cells in coculture: 2 μg/ml periostin added, warfarin-treated stroma, 5 days, P=0.02
Description: as §3
To test the direct effect of warfarin on hematopoietic cells 100,000 Lin− cells were cultured in 2 μM vehicle or warfarin in the absence of stroma cells for a total of 7 days. For the in vitro rescue experiment with periostin stroma cells were grown in warfarin for 14 days, before vehicle or periostin were added.

[3] = test system: LKS cells and myeloid cells; assay: In vivo administration of periostin to mice treated with warfarin
Description: as §1, §2
For cell cycle analysis cells were permeabilized and fixed with the cytoperm/cytofix kit (BD Biosciences, San Jose, CA), followed by staining with an antibody to Ki67-PE (Biolegend, San Diego, CA) overnight at 4 C. Consequently, cells were washed and resuspended in PBS with DAPI (1 ng/ml). For detection of apoptosis cells were first stained for surface markers, washed with Annexin V buffer (Life Technologies, Darmstadt, Germany), stained with Annexin V-PE (Life Technologies, Darmstadt, Germany), washed with Annexin V binding buffer, resuspended in PBS with DAPI and analyzed.

Lin− cells [4] = assay: Adhesion assay of Lin− cells to stroma cells; assay type: cell-based, mice; details: periostin added, warfarin- and more prominently vehicle-treated conditions, P=0.03
From the text: In vivo administration of periostin to mice treated with warfarin also ‘rescued’ the number of LKS cells positive for integrin β3, whose binding to its ligand periostin (Gillan et al., 2002) is known to mediate HSC support (P=0.0013; FIG. 5A) (Khurana and Verfaillie, 2013). […] In order to test, whether the periostin/integrin β3-axis mediates the adhesion of HSPC to stroma, the inventors performed an adhesion assay plating untreated Lin− cells on vehicle- or warfarin-treated stroma cells in the presence or absence of periostin. […] Due to the role of pAKT, which lies downstream of integrin β3 (Hynes, 2002), in periostin-mediated cell survival (Bao et al., 2004) the inventors tested the effect of inhibition of integrin β3 by cilengitide on pAKT in Lin− cells after coculture on BM stroma cells. Similar to the reduction of pAKT+ Lin− cells in mice treated with warfarin (FIG. 3A), inhibition of integrin β3 led to a decrease of pAKT in Lin− cells (P=0.03).
as §3

With `O=C1c2ccccc2C(=O)C1c1ccc(F)cc1` [fluindione] the “absolute number of leukocytes” value (patients; 282 patients on warfarin (P=0.0007) or 89 on fluindione (P=0.029) vs 145 control patients) was “reduced”, the “absolute number of monocytes” value (patients; 282 patients on warfarin (P=0.004) or 89 on fluindione (P=0.046) vs 145 control patients) was “reduced” and the platelets (patients; warfarin- or fluindione-treated patients) was “not reduced”.

`NC1(c2ccc(-c3nc4ccn5c(=O)[nH]nc5c4cc3-c3ccccc3)cc2)CCC1` [MK-2206] was tested, and the “temporary recovery of warfarin-exposed Lin− cells on untreated stroma” value (Lin− cells [1]) was “prevented”.

With `CC1=C(C/C=C(\C)CCC[C@H](C)CCC[C@H](C)CCCC(C)C)C(=O)c2ccccc2C1=O` [vitamin K1] the “decreased percentage of myeloid cells in previously warfarin-treated mice” value (wildtype mice) was “rescued”, the “percentage of LKS cells, cell cycle of transplanted LKS cells, number of colonies in methylcellulose” value (HSC) was “did not lead to an increase” and the “engraftment of donor cells” value (HSC; treatment of donor mice with vitamin K prior to competitive transplantation) was “did not lead to increased engraftment”.

`CC(C)[C@H]1C(=O)N[C@@H](CCCN=C(N)N)C(=O)NCC(=O)N[C@@H](CC(=O)O)C(=O)N[C@H](Cc2ccccc2)C(=O)N1C` [cilengitide] was tested, and the “pAKT in Lin− cells” value (integrin β3) was “decrease”.

B1: periostin: Recombinant mouse periostin (R&D Systems, cat. no. 2955-F2), produced in the Sf21 (baculovirus)-derived insect cell line (protein)
chain: NSYYDKVLAHSRIRGRDQGPNVCALQQILGTKKKYFSSCKNWYQGAICGKKTTVLYECCPGYMRMEGMKGCPAVMPIDHVYGTLGIVGATTTQHYSDVSKLREEIEGKGSYTYFAPSNEAWENLDSDIRRGLENNVNVELLNALHSHMVNKRMLTKDLKHGMVIPSMYNNLGLFINHYPNGVVTVNCARVIHGNQIATNGVVHVIDRVLTQIGTSIQDFLEAEDDLSSFRAAAITSDLLESLGRDGHFTLFAPTNEAFEKLPRGVLERIMGDKVASEALMKYHILNTLQCSEAITGGAVFETMEGNTIEIGCEGDSISINGIKMVNKKDIVTKNGVIHLIDEVLIPDSAKQVIELAGKQQTTFTDLVAQLGLASSLKPDGEYTLLAPVNNAFSDDTLSMDQRLLKLILQNHILKVKVGLSDLYNGQILETIGGKQLRVFVYRTAICIENSCMVRGSKQGRNGAIHIFREIIQPAEKSLHDKLRQDKRFSIFLSLLEAADLKDLLTQPGDWTLFAPTNDAFKGMTSEERELLIGDKNALQNIILYHLTPGVYIGKGFEPGVTNILKTTQGSKIYLKGVNETLLVNELKSKESDIMTTNGVIHVVDKLLYPADIPVGNDQLLELLNKLIKYIQIKFVRGSTFKEIPMTVYRPAMTKIQIEGDPDFRLIKEGETVTEVIHGEPVIKKYTKIIDGVPVEITEKQTREERIITGPEIKYTRISTGGGETGETLQKFLQKEVSKVTKFIEGGDGHLFEDEEIKRLLQGDTPAKKIPANKRVQGPRRRSREGRSQ
B1 was tested, and the “absolute number of hematopoietic cells in coculture” value [2] was “increase of the number of hematopoietic cells”, the “absolute number of hematopoietic cells in coculture” value ([2]; listed as recombinant periostin) was “restored” and the “percentage of LKS cells in warfarin-treated cultures” value ([2]; periostin added, P=0.056) was “strong trend towards restoration”. For the same molecule, the “engraftment of CD45.1+ bone marrow (ratio CD45.1/CD45.2)” value (HSC; donor treated for four days, four weeks after transplantation, P=0.02) was “increased engraftment”, the “engraftment of CD45.1+ bone marrow” value (HSC; later time points (data not shown)) was “not at later time points” and the “percentage of LKS cells, cell cycle of transplanted LKS cells, number of colonies in methylcellulose” value (HSC) was “did not lead to an increase”. The “annexin V+ apoptotic LKS cells” value ([3]; periostin and warfarin (or vehicle) vs warfarin (or vehicle) alone, P=0.02) was “significantly reduced”, the “median fluorescence intensity of integrin β3 on LKS cells” value ([3]; periostin to warfarin-treated mice) was “remained unchanged” and the “percentage of myeloid cells in peripheral blood” value ([3]; periostin to warfarin-treated mice, 4 day treatment, P=0.007) was “rescued; also recorded: increase of the percentage of myeloid cells”. For the same molecule, the “number of LKS cells positive for integrin β3” value ([3]; periostin to warfarin-treated mice, P=0.0013) was “rescued” and the “adhesion of Lin− cells to stroma” value (Lin− cells [4]) was “restored or augmented”.
